This is an account of results in article PMC10720262, “Molecular determinants of cross-reactivity and potency by VH3-33 antibodies against the Plasmodium falciparum circumsporozoite protein” (Cell Reports, 2023).

The target in assay [1] is mAb 317. Description: SPR. (In general: In SPR one partner is held on a chip, and binding of the other changes the refractive index at the surface.)
Assay [2] deals with mAb CIS43. Description: SPR.
The target of assay [3] is mAb 317. The assay can be described thus: SPR; Carterra LSA; mAb amine-coupled to a CMD200M chip, peptide titrated in 2-fold steps up to 8 ug/mL without regeneration; 25 C; HBSTE (10 mM HEPES pH 7.4, 150 mM NaCl, 3 mM EDTA, 0.01% Tween 20); 1:1 Langmuir model; mean of triplicates; KD includes avidity for antigens with several repeats.
Assay [4] has as its target mAb CIS43. The description is as above.

Sequence of mAb CIS43 (heavy, as listed by the source, chain 1 of 2): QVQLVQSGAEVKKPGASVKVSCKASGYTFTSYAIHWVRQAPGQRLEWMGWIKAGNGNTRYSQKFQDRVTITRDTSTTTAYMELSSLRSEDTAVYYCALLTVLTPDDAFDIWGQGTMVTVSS
Sequence of mAb CIS43 (light, as listed by the source, chain 2 of 2): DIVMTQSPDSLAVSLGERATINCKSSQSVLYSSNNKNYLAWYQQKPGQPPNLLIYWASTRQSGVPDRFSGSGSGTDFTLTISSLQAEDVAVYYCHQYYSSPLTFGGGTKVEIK
Sequence of mAb 317 (heavy, as listed by the source, chain 1 of 2): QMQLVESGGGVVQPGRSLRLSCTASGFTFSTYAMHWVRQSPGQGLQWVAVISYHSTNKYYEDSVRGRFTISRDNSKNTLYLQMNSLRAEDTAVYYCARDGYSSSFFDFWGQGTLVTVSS
Sequence of mAb 317 (light, as listed by the source, chain 2 of 2): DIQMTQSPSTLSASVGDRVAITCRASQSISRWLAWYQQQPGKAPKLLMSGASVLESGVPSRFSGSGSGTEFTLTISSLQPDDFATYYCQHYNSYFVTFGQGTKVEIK

Consider NANP3 peptide, for which, in assay [1], the Kd was 16.6 nM; the dissociation rate constant (koff) (in general, a measure of how fast the partners let go of each other) came out at 0.0206 s⁻¹; the kon – broadly, the second-order rate constant of association – was determined as 1.24e+06 M⁻¹ s⁻¹. The substance further returned a Kd in assay [2] of 1720 nM.
Regarding NPDP peptide, in assay [3], the Kd is 4560 nM, the dissociation rate constant (koff) stood at 0.0454 s⁻¹ and the on-rate (kon) was found to be 10000 M⁻¹ s⁻¹. In assay [4], the Kd amounted to 19.1 nM, the off-rate (koff) worked out at 0.00216 s⁻¹ and the kon stood at 113000 M⁻¹ s⁻¹.
In assay [3], NPNA3 peptide showed a Kd of 7.03 nM, an off-rate constant (koff) of 0.00138 s⁻¹ and a kon of 197000 M⁻¹ s⁻¹. In assay [4], this substance had a Kd of 9430 nM, a dissociation rate constant (koff) of 0.0706 s⁻¹ and a kon of 7940 M⁻¹ s⁻¹.
